Laboratory results reported in patent US8628938B2, “Polynucleotide encoding UDP-glucuronyl transferase” (Suntory Holdings Limited, priority 2007, dated 2014).

Experiment: Analysis of pH and temperature characteristics of the recombinant enzymes
Format: biochemical
Settings: for reaction optimum temperature: activity assay for 30 minutes, reaction temperature 10 to 55° C.; for activity in an acidic region: reaction pH dependency
Experimental: Temperature stability was analyzed as follows. An enzyme solution was treated at 15 to 55° C. for an hour and then cooled to 4° C. Using the sample cooled, the residual activity was determined under standard reaction conditions. After 167 mM final concentration of a buffer solution (pH 4, 4.5, 5, Acetate-NaOH; pH 5.5, 6, 6.5, 7, 7.5, NaH2PO4-NaOH; pH 8, 8.5, 9, Tris-HCl) was added to the enzyme solution, the mixture was treated at 4° C. for an hour and then 500 mM final concentration of potassium phosphate buffer (pH 7.5) was added thereto. Using the sample treated, the residual activity was determined under standard reaction conditions. The reaction was performed under standard reaction conditions where the reaction temperature was set at 10 to 55° C. to analyze the reaction temperature dependency. Reaction pH dependency was analyzed under standard reaction conditions using a buffer solution (pH 4, 4.5, 5, Acetate-NaOH; pH 5.5, 6, 6.5, 7, 7.5, NaH2PO4—NaOH; pH 8, 8.5, 9, Tris-HCl) in place of potassium phosphate buffer (pH 7.5). […] PfUGT50 was stable at 30° C. or lower (an hour, pH 7.5) and the reaction optimum temperature was 30° C. in the activity assay for 30 minutes. […] This enzyme was stable at 40° C. or lower (an hour, pH 7.5) and the reaction optimum temperature was 35° C. in the activity assay for 30 minutes. […] This enzyme was stable at 30° C. or lower (an hour, pH 7.5) and the reaction optimum temperature was 45° C. in the activity assay for 30 minutes. These properties were similar to known GT involved in plant secondary metabolism.

B1: S1UGT: UDP-glucuronosyltransferase having the amino acid sequence of SEQ ID NO: 11, derived from Scutellaria laeteviolacea v. yakusimensis (protein, listed as Scutellaria sp.)
chain: MEDTIVIYTTPEHLNTMAVLAKFISKHHPSVPIILISTAAESAAASIAAVPSITYHRLPLPEIPPSLTKDRVELFFELPRLSNPNLRLALQEISQKARIRAFVIDFFCNAAFEVSTSLSIPTFYYFSSGSPTATLVLHFQTLDETIPGDLKDLDDFVEIPGLPPIYSLDIPVALLTRQSLVYQSSVDISKNLRKSAGFLVNGFDALEFRAKEAIVNGLCVPNGPTPPVYFIGPLVGDVDAKAGGEEHECLRWLDTQPSKSVIFLCFGRRGVFSAEQLKETAVALENSGHRFLWSVRNPPEIMKNSDEPDLDELLPEGFLERTKDRGFVIKSWAPQKEVLSHDSVGGFVTHCGRSSISEGVWFGVPMIGWPVDAEQKLNRTVLVEEMQVALPMEEAEGGFVTAAELEKRVRELMESKVGKAVRQRVGELKCSARAAVTGNGSSLSDFKKFLLATRD
reaction optimum temperature: 35 °C
temperature at which the enzyme was stable (residual activity) (an hour, pH 7.5, treated at 15 to 55° C.): ≤ 40 °C
activity in an acidic region: little activity

B2: PfUGT50: UDP-glucuronosyltransferase having the amino acid sequence of SEQ ID NO: 5, derived from Perilla frutescens a red-leaf variety (protein, listed as Perilla frutescens)
chain: MEGVILLYSSAEHLNSMLLLATFIAKHHPSIPITILSSADYSAAASVSTLPSITYRRLPPVAIPPDSIKNPVEAFFEIPRLQNPNLRVALEEISQKTRIRAFVIDFFCNSAFEVSTSLSIPTYFYVSTGSAGVCIFLYFPTTDETVATDIGDLRDFLEFPGSPIIHSSDLPQLTFFRRSNVFKHMLDTSKNMQKSSGILTNGFDAMEFRAKEALTNGLCVPNGPTPPVYLVGPLVAGSNAKKDHECLLWLDRQPSKSVVFLCFGRRGLFSGKQLREMAVALERSGYRFLWSVRNPPENRSPAEDPDLDELLPEGFLERTKDIGFVVKSWAPQKEVLSHDAVAGFVTHCGRSSILEALVNGKPMIGWPMYAEQRMNKVFMVDEMKVALPLEEEEDGFVTAVELEKRLRQLMESKTGRDVRHRVAEMKAAATAAMGENGSAVVALRKFIDSVTRD
reaction optimum temperature: 30 °C
activity in an acidic region: little activity

B3: AmUGTcg10: UDP-glucuronosyltransferase having the amino acid sequence of SEQ ID NO: 13, derived from Antirrhinum majus (protein, listed as Antirrhinum majus)
chain: MEDTIVLYASAEHLNSMLLLGKLINKHHPTISVAIISTAPNAAASSVADVAAISYQQLKPATLPSDLTKNPIELFFEIPRLHNPNLLEALEELSLKSKVRAFVIDFFCNPAFEVSTSLNIPTYFYVSSGAFGLCGFLHFPTIDETVEKDIGELNDILEIPGCPPVLSSDFPKGMFFRKSNTYKHFLDTAKNMRRAKGIVVNAFDAMEFRAKEALVNNLCVPNSPTPPVFLVGPLVGASTTTKTTNEQHECLKWLDVQPDRSVIFLCFGRRGLFSADQLKEIAIGLENSGHRFLWSVRCPPSKPNSYNTDPDLDELLPEGFLSRTETRGFVIKSWAPQKEVLSHGAVGGFVTHCGRSSILEAVSFGVPMIGWPIYAEQRMNRVFMVEEMKVALQLDEVEEGFVAAVELEKRVKELMDSKNGRAVRQRVKEMKVAAEVAVEKGGSSVVALQRFVDMVVS
reaction optimum temperature: 45 °C
activity in an acidic region: little activity
